This note sets out measurements from patent US20070123452A1, “Method of selecting novel immunosuppressant” (Astellas Pharma Inc., priority 2002, published 2007).

The subject of one assay is Jurkat cells. In words: Cell proliferation, Cell Counting Kit-8. The assay is classed as cell-based, human. The note with it: 10 μg expression plasmid; Jurkat cells versus HEL cells and 293 cells. Here is the method:
10 μg of a plasmid for the expression of wild-type HDAC4 and the HDAC4 dominant negative variant (H863L) prepared in Example 6 was transfected to Jurkat cells, HEL cells and 293 cells.
1×10^7 Jurkat cells (ATCC, TIB-152) were transformed by the electroporation method (BIO-RAD, Gene Pulser II, voltage 300 V, charge 975 μF, 400 μL). After transformation, 2.5 mL of RPMI 1640 containing 10% FBS (MOREGATE) (10% FBS RPMI 1640) was added, and this mixture was dispensed to a 96-well white plate in a ratio of 50 μL/well. After cultivation under conditions of 37° C., 5% CO2 and saturated humidity for 5 hours, a liquid mixture of Phorbol 12-Myristate 13-Acetate (PMA, SIGMA), Ionomycin (SIGMA) and Anti-CD28 antibody (Pharmingen) in 10% FBS RPMI 1640 was added at 50 μL/well (the final concentrations were 50 ng/mL, 1 μg/mL and 75 ng/mL, respectively) to stimulate the Jurkat cells. After cultivation under conditions of 37° C., 5% CO2 and saturated humidity for 4 hours, the number of cell was confirmed using the Cell Counting Kit-8 (DOJIN) 8.75×10^6 HEL cells (accession number JCRBOO62, JCRB) were transformed by the electroporation method (BIO-RAD, Gene Pulser II, voltage 1750 V, charge 10 μF, 365 μL). After transformation, 2 mL of 10% FBS RPMI 1640 was added, and this mixture was dispensed to a 96-well white plate in a ratio of 50 μL/well. […]
In general terms: Tetrazolium dyes change colour on reduction, which living cells bring about.

In a further assay the test system is histone. In words: HDAC activity with [3H]-labeled acetylated histone as a substrate. The assay is classed as biochemical, human. Particulars: expressed in 293T cells, crudely purified; compared to wild-type HDAC4. Here is the method: 7 μg of a plasmid for the expression of wild-type HDAC4 and HDAC4 dominant negative variants (H802K, H803L, H863L) was transfected to 293T cells by the calcium phosphate method; 48 hours later, whole cell lysate (cells were disrupted in 25 mM Tris, pH 7.4, 150 mM NaCl, 1 mM CaCl2, 1% Triton X-100, and cell debris was removed by centrifugation) was crudely purified using an anti-Flag antibody column (SIGMA, anti-Flag M2-agarose) (washed with TBS, then eluted with 0.1M Glysine-HCl, pH 3.5), and used for the measurement of HDAC activity. The reaction substrate used was a [^3H]-labeled acetylated histone prepared by cultivating Jurkat cells (2×10^8 cells) in 40 mL of an RPMI (SIGMA) medium containing 300 MBq [^3H] sodium acetate (NENTM Life Science Products, Inc.) for 2 hours, disrupting the cells in Lysis buffer, pH 6.5 (10 mM Tris-HCl, 50 mM Sodium Hydrogen sulfate, 1% Triton X-100, 10 mM MgCl2-6H2O, 8.6% Sucrose), washing the cells with Wash buffer (10 mM Tris-HCl, 13 mM EDTA), and then adding 0.4N H2SO4.

B1: HDAC4 dominant negative variant (H863L): HDAC4 variant with H863L mutation, amino acid sequence SEQ ID NO:6, expressed from plasmid (protein, listed as Homo sapiens)
chain: MSSQSHPDGLSGRDQPVELLNPARVNHMPSTVDVATALPLQVAPSAVPMDLRLDHQFSLPVAEPALREQQLQQELLALKQKQQIQRQILIAEFQRQHEQLSRQHEAQLHEHIKQQQEMLAMKHQQELLEHQRKLERHRQEQELEKQHREQKLQQLKNKEKGKESAVASTEVKMKLQEFVLNKKKALAHRNLNHCISSDPRYWYGKTQHSSLDQSSPPQSGVSTSYNHPVLGMYDAKDDFPLRKTASEPNLKLRSRLKQKVAERRSSPLLRRKDGPVVTALKKRPLDVTDSACSSAPGSGPSSPNNSSGSVSAENGIAPAVPSIPAETSLAHRLVAREGSAAPLPLYTSPSLPNITLGLPATGPSAGTAGQQDTERLTLPALQQRLSLFPGTHLTPYLSTSPLERDGGAAHSPLLQHMVLLEQPPAQAPLVTGLGALPLHAQSLVGADRVSPSIHKLRQHRPLGRTQSAPLPQNAQALQHLVIQQQHQQFLEKHKQQFQQQQLQMNKIIPKPSEPARQPESHPEETEEELREHQALLDEPYLDRLPGQKEAHAQAGVQVKQEPIESDEEEAEPPREVEPGQRQPSEQELLFRQQALLLEQQRIHQLRNYQASMEAAGIPVSFGGHRPLSRAQSSPASATFPVSVQEPPTKPRFTTGLVYDTLMLKHQCTCGSSSSHPEHAGRIQSIWSRLQETGLRGKCECIRGRKATLEELQTVHSEAHTLLYGTNPLNRQKLDSKKLLGSLASVFVRLPCGGVGVDSDTIWNEVHSAGAARLAVGCVVELVFKVATGELKNGFAVVRPPGHHAEESTPMGFCYFNSVAVAAKLLQQRLSVSKILIVDWDVHHGNGTQQAFYSDPSVLYMSLLRYDDGNFFPGSGAPDEVGTGPGVGFNVNMAFTGGLDPPMGDAEYLAAFRTVVMPIASEFAPDVVLVSSGFDAVEGHPTPLGGYNLSARCFGYLTKQLMGLAGGRIVLALEGGHDLTAICDASEACVSALLGNELDPLPEKVLQQRPNANAVRSMEKVMEIHSKYWRCLQRTTSTAGRSLIEAQTCENEEAETVTAMASLSVGVKPAEKRPDEEPMEEEPPL
modifications: Dominant negative mutant (H863L) of human histone deacetylase-4 (HDAC4) gene
In the case of B1, the “cell proliferation (number of cells)” value with Jurkat cells was “cell proliferation inhibition specific for Jurkat cells”. Also, the “HDAC activity with histone as a substrate” value in the assay with histone is “decreased HDAC activity compared to wild-type HDAC4”.
